In US20190062438A1 (CSL, published 2019):
Changes are numbered by the printed parent chain.

Experiments:
Experiment in all cases: SPR, steady state, Fab over captured mutant
shCD131 N37A = target: T1, shCD131 N37A (human, UniProt P32927 17-438)
T1 construct: C-terminal 6xHis
T1 sequence: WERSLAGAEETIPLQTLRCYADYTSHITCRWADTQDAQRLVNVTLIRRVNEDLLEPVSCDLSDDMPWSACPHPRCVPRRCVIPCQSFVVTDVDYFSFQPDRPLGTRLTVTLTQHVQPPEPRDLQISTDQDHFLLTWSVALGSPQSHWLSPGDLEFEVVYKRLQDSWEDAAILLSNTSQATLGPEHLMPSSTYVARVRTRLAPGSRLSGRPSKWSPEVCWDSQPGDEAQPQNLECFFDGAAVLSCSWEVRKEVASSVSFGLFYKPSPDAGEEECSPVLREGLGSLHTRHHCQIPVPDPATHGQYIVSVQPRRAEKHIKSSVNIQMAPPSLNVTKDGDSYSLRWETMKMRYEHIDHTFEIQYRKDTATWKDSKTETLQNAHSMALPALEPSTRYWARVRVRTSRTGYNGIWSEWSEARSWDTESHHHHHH
Method: (§1) For some analysis purified Fab was injected over each flow cell for 3 minutes and dissociation was monitored for a further 10 minutes. Regeneration of the surface was performed after each cycle with a 40 second injection of 25 mM glycine, pH 2.0. The analysis was performed with Fabs at several concentrations between 100 and 0.31 nM, with each concentration analyzed twice and in random order. The analysis was performed at a flow rate of 30 μl/min in HBS-EP buffer (10 mM Hepes, 150 mM NaCl, 3 mM EDTA, 0.005% Tween 20, pH 7.4) at 37° C. Responses from spots 2 and 4 of each flow cell, (in which shβc was not captured, but otherwise treated identically), were subtracted from those of spots 1 and 5 respectively to produce reference subtracted data. Reference subtracted responses from a blank injection comprising buffer alone were subtracted from the resultant sensorgrams to produce double referenced data suitable for kinetic analysis. Double-referenced sensorgrams were fitted using non-linear regression to a model describing 1:1 kinetics, including a term for mass transport limitation. The Rₘₐₓ value was fitted locally to account for slight deviations in the level of sCD131 captured, with association rate (kₐ), dissociation rate (kd) and equilibrium dissociation constant (KD) fitted globally.
(§2) Mapping of the shCD131 epitope was performed by measurement of the affinity of Fabs for various alanine point mutants of shCD131 essentially as described above, with the following exceptions. Each shCD131 mutant was captured for 120 seconds at concentrations between 1 and 5 μg/ml. For kinetic analysis, purified recombinant Fabs were injected for 2 minutes, and dissociation was monitored for a further 2 minutes. […] Fab concentrations ranged from 16 μM to 3.9 nM in two-fold dilutions. The assays were conducted at 25° C. All sensorgrams were reference subtracted as described above. For determination of steady-state affinity (KD only), the response at the end of the binding phase was used to fit the data to a single-site binding model. Kinetic parameters were determined as described above.

shCD131 T40A = target: T2, shCD131 T40A (human, UniProt P32927 17-438)
T2 construct: C-terminal 6xHis
T2 sequence: T1 sequence with A21N, T24A
Method: as §1, §2

shCD131 S102A = target: T3, shCD131 S102A (human, UniProt P32927 17-438)
T3 construct: C-terminal 6xHis
T3 sequence: T1 sequence with A21N, S86A
Method: as §1, §2

B1: 9A2 Fab (Fab, V domains shown)
VH: EVQLLESGGGLVQPGGSLRLSCAASGFTFSHYHMLWVRQAPGKGLEWVSSIRSSGGFTYYADSVKGRFTISRDNSKNTLYLQMNSLRAEDTAVYYCARFYDSFFDIWGQGTMVTVSS
VL: DIQMTQSPSSVSASVGDRVTITCRASQGISSWLAWYQQKPGKAPKLLIYAASSLQSGVPSRFSGSGSGTDFTLTISSLQPEDFATYYCQQANSFPITFGQGTRLEIKR
notes: also called recombinant Fab of 9A2
A Kd (shCD131 N37A) of 620 nM, a Kd (shCD131 T40A) of 236 nM and a Kd (shCD131 S102A) of 324 nM were found for B1 in this work.
